Data published in publication PMC9881156, “POT-3 preferentially binds the terminal DNA-repeat on the telomeric G-overhang”.

Key:
POT-3 [1] = target: T1, POT-3 (Caenorhabditis elegans, UniProt G5EFG7 1-215); assay: EMSA; conditions: apparent, EMSA: 20 mM Tris-HCl pH 8.0, 50 mM NaCl, 1 mM MgCl2, 5 mM DTT, 50 ug/ml BSA, 4% Ficoll 400, on ice 10 min, competition and S4 Kd: same salts with 0.001% …
T1 sequence: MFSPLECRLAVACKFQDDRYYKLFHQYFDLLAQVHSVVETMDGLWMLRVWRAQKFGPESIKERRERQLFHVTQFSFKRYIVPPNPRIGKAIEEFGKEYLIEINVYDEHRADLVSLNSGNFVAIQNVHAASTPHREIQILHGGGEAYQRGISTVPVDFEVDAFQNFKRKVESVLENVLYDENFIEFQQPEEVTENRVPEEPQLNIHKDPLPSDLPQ

POT-2 [2] = target: T2, POT-2 (Caenorhabditis elegans, UniProt O45595 1-251); assay: EMSA; conditions: apparent, EMSA: 20 mM Tris-HCl pH 8.0, 50 mM NaCl, 1 mM MgCl2, 5 mM DTT, 50 ug/ml BSA, 4% Ficoll 400, on ice 10 min, competition and S4 Kd: same salts with 0.001% …
T2 sequence: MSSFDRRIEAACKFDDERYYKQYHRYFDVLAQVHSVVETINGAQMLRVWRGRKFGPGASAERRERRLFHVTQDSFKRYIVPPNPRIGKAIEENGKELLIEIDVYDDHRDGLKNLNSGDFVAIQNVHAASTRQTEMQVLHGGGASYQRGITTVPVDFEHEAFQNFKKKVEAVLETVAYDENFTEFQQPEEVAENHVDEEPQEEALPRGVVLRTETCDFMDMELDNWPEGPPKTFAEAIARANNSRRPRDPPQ

POT-3 [3] = target: T1, POT-3; assay: analytical gel filtration; 1 protein per DNA; 500 mM NaCl; EMSA: 20 mM Tris-HCl pH 8.0, 50 mM NaCl, 1 mM MgCl2, 5 mM DTT, 50 ug/ml BSA, 4% Ficoll 400, on ice 10 min; competition and S4 Kd: same salts with 0.001% Tween-20, room temperature; gel filtration: 20 mM Tris-HCl pH 8.0, 500 mM NaCl, 10 mM DTT, 10% glycerol (binding); conditions: protein: recombinant; tags: 6xHis
POT-2 [4] = target: T2, POT-2; assay: as above; conditions: protein: recombinant; tags: 6xHis
POT-3 [5] = target: T1, POT-3; assay: analytical gel filtration; 3 proteins per DNA; 500 mM NaCl; EMSA: 20 mM Tris-HCl pH 8.0, 50 mM NaCl, 1 mM MgCl2, 5 mM DTT, 50 ug/ml BSA, 4% Ficoll 400, on ice 10 min; competition and S4 Kd: same salts with 0.001% Tween-20, room temperature; gel filtration: 20 mM Tris-HCl pH 8.0, 500 mM NaCl, 10 mM DTT, 10% glycerol (binding); conditions: protein: recombinant; tags: 6xHis
POT-2 [6] = target: T2, POT-2; assay: as above; conditions: protein: recombinant; tags: 6xHis

fragment 7 / 12mer, (TTAGGC)2 3' overhang
Kd (POT-3 [1]; on ice): 0.16 nM
Kd (POT-3 [1]; room temperature): 5 nM
Kd (POT-2 [2]; on ice): 0.1 nM
Kd (POT-2 [2]; room temperature): 7.2 nM

TTAGGCTTAGGC (ssDNA) [(TTAGGC)2 ssDNA]
binding result (POT-3 [3]): binds
binding result (POT-2 [4]): binds

TTAGGCTTAGGCTTAGGCTTAGGC (ssDNA) [(TTAGGC)4 ssDNA]
binding result (POT-3 [5]): binds
binding result (POT-2 [6]): binds
